# T1: GnT-I (Homo sapiens, UniProt P26572)
# T1 construct: Ig kappa chain secretory signal (N); made in house; host or cells: HEK293T (transient, secreted into serum-free medium)
# T1 sequence (P26572 39-445 limits assumed): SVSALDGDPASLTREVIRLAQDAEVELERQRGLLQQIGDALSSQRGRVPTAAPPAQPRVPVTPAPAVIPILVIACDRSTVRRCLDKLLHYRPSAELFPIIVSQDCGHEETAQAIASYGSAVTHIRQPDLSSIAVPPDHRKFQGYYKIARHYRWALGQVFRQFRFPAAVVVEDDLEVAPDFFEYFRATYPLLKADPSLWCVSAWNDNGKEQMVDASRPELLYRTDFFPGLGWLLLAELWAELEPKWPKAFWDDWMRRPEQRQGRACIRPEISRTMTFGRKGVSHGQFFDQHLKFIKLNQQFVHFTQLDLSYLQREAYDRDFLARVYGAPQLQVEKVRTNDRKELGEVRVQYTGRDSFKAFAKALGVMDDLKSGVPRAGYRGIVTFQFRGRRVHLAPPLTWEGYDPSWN
# Columns and labels:
# GnT-I = molecular target: T1, GnT-I; assay: GnT-I activity assay of solubilized enzymes; format: biochemical; details: method of Reference Example 2
# Procedure: The activity of GnT-1 was assayed with a method by Yoshida et al. [Yoshida, S., Suzuki, M., Yamano, S., Takeuchi, M., Ikenaga, H., Kioka, N., Sakai, H., and Komano, T., Glycobiology, (1999), 9, 53–58] as described below. A 20 μl reaction solution was prepared by adding an enzyme source thereto so as to have a final concentration of 100 mM MES (pH 6.0), 20 mM MnCl2, 5 μM Manα1–6(Manα1–3)Manα1–6(Manα1–3)Manβ1–4GlcNAcβ1–4GlcNAc-PA(M5GN2-PA; Takara Shuzo, PA-Sugar Chain 017), 1 mM UDP-GlcNAc, 100 mM GlcNAc, 5 mM AMP, 1% Triton X-100, and 0.2% BSA. The reaction solution was incubated at 37° C. for 1 hour, and the reaction was terminated in boiling water. Thereafter, the reaction solution was analyzed by a reverse phase HPLC (Cosmosil 5C18-AR column) available from Nacalai Tesque.
# When Manα1–6(Manα1–3)Manβ1–4GlcNAcβ1–4GlcNAc-PA (M3GN2-PA; Takara Shuzo, PA-Sugar Chain 016) was used as a sugar receptor, the same method was employed for analysis.
# OMGnT = OMGnT activity in serum-free medium of HEK293T cells expressing solubilized enzymes; format: biochemical, human; details: serum-free medium of HEK293T transfectants
# Procedure: The enzyme solution was added to 140 mM MES [2-(N-morpholino) ethanesulfonic acid] buffer (pH 7.0) containing 0.4 mM Man-peptide, 0.2 mM UDP-[^3H]GlcNAc (up to 228,000 dpm/nmol), 10 mM MnCl2, 5 mM AMP, 200 mM GlcNAc, 2%(w/v) Triton X-100, 10% glycerol, 2 μg/ml antipain, 2 μg/ml chymostatin, 3 μg/ml pepstatin A, 2 μg/ml leupeptin, 1 mM benzamidine-HCl, and 1 mM PMSF (phenylmethylsulfonyl fluoride) to prepare 50 μl of reaction solution. After the reaction at 37° C. for 3 hours, the reaction was terminated by 3 minutes of boiling. The reaction mixture was then filtered with a filter Ultrafree-MC (Millipore) having a pore size of 0.22 μm to remove solids, and analyzed by Wakopak 5C18-200 column (4.6×250 mm, Wako Pure Chemical Industries, Ltd.). The separation was carried out using concentration gradient with Solution A and Solution B at a flow rate of 1.0 ml/min. […] Peptide detection was carried out at 214 nm, and the radioactivity of each fraction was assayed using a liquid scintillation counter.
# Each secretory expression plasmid was transiently expressed in a HEK293T cell derived from human embryonic kidney. Usually, HEK293T cells were cultured in D-MEM (Gibco, #11995-065) containing 10% Fetal Calf Serum (Hyclone), 10 mM MEM Non-Essential Amino Acids solution (Gibco), 2 mM Glutamine (Gibco), and 100 units/ml Penicillin/100 μg/ml Streptomycin (Gibco). In a 6-well plate, 2 μg of plasmid was transfected into 50 to 70% confluent cells by calcium phosphate method. After overnight cultivation, the medium exchange was performed and the cultivation was continued for 48 hours [Pear, W. S., Nolan, G. P., Scott, M. L. and Baltimore, D., Proc. Natl. Acad. Sci. USA, (1993), 90, 8392–8396]. Further, the medium was exchanged with a serum-free medium, and after 48-hour cultivation, the supernatant was collected.
# According to the method described in Example 1, OMGnT activity in the serum-free medium was assayed.
Molecule,GnT-I activity (GnT-I) [pmol/hr/ml medium],OMGnT activity (OMGnT) [pmol/hr/mg protein],OMGnT activity (in words) (OMGnT),GnT-I activity (in words) (GnT-I)
"His-Xpress-sGnT-I: control: solubilized human GnT-I enzyme, 407 amino acids from 39:Ser (protein, left off: small tags and cut ends, control: solubilized human GnT-I enzyme, 407 amino acids from 39:Ser) SVSALDGDPASLTREVIRLAQDAEVELERQRGLLQQIGDALSSQRGRVPTAAPPAQPRVPVTPAPAVIPILVIACDRSTVRRCLDKLLHYRPSAELFPIIVSQDCGHEETAQAIASYGSAVTHIRQPDLSSIAVPPDHRKFQGYYKIARHYRWALGQVFRQFRFPAAVVVEDDLEVAPDFFEYFRATYPLLKADPSLWCVSAWNDNGKEQMVDASRPELLYRTDFFPGLGWLLLAELWAELEPKWPKAFWDDWMRRPEQRQGRACIRPEISRTMTFGRKGVSHGQFFDQHLKFIKLNQQFVHFTQLDLSYLQREAYDRDFLARVYGAPQLQVEKVRTNDRKELGEVRVQYTGRDSFKAFAKALGVMDDLKSGVPRAGYRGIVTFQFRGRRVHLAPPLTWEGYDPSWN",500,0.4,almost no activity,–
"His-Xpress-sOMGnT(S): solubilized human OMGnT, 414 amino acids 247:Ser to 660:Thr of SEQ ID NO: 2, secreted from HEK293T; plasmid named in Table 3 (protein, listed as Homo sapiens, His-Xpress tag) SSAEEAECHWADTELNRRRRRFCSKVEGYGSVCSCKDPTPIEFSPDPLPDNKVLNVPVAVIAGNRPNYLYRMLRSLLSAQGVSPQMITVFIDGYYEEPMDVVALFGLRGIQHTPISIKNARVSQHYKASLTATFNLFPEAKFAVVLEEDLDIAVDFFSFLSQSIHLLEEDDSLYCISAWNDQGYEHTAEDPALLYRVETMPGLGWVLRRSLYKEELEPKWPTPEKLWDWDMWMRMPEQRRGRECIIPDVSRSYHFGIVGLNMNGYFHEAYFKKHKFNTVPGVQLRNVDSLKKEAYEVEVHRLLSEAEVLDHSKNPCEDSFLPDTEGHTYVAFIRMEKDDDFTTWTQLAKCLHIWDLDVRGNHRGLWRLFRKKNHFLVVGVPASPYSVKKPPSVTPIFLEPPPKEEGAPGAPEQT",–,20,significantly high OMGnT activity,did not exhibit activity at all

# — patent publication US7217548B2, “N-acetylglucosaminlytransferase and polynucleotide encoding the same” (National Institute of Advanced Industrial Science and …, priority 2000, dated 2007)
